Laboratory results reported in publication PMC10309634, “Computer simulation approach to the identification of visfatin-derived angiogenic peptides” (PLOS ONE, 2023).

System: HUVECs
Experiment: In vitro tube formation assay on Matrigel
Assay type: cell-based, human
Settings: positive controls, 4 hours on Matrigel, compared to the control group
Protocol: HUVECs (2×10^4 cells/well) were seeded on a layer of polymerized Matrigel and treated with or without visfatin-derived peptides. The Matrigel culture was incubated at 37°C in the EGM supplemented with EGM-Supplement Mix® containing 1% FBS. After 4 hours, changes in the cell morphology were observed using a phase-contrast microscope and photographed at 40× magnification. Each sample was assayed in duplicate, and independent experiments were repeated three times. Angiogenesis was analyzed with ImageJ software using an angiogenesis analyzer (Bethesda, MD, USA).

B1: visfatin: Commercial recombinant mouse visfatin (Adipogen Life Science), positive control (protein, UniProt Q99KQ4 1-491, looked up)
Nicotinamide …: MNAAAEAEFNILLATDSYKVTHYKQYPPNTSKVYSYFECREKKTENSKVRKVKYEETVFYGLQYILNKYLKGKVVTKEKIQEAKEVYREHFQDDVFNERGWNYILEKYDGHLPIEVKAVPEGSVIPRGNVLFTVENTDPECYWLTNWIETILVQSWYPITVATNSREQKKILAKYLLETSGNLDGLEYKLHDFGYRGVSSQETAGIGASAHLVNFKGTDTVAGIALIKKYYGTKDPVPGYSVPAAEHSTITAWGKDHEKDAFEHIVTQFSSVPVSVVSDSYDIYNACEKIWGEDLRHLIVSRSTEAPLIIRPDSGNPLDTVLKVLDILGKKFPVTENSKGYKLLPPYLRVIQGDGVDINTLQEIVEGMKQKKWSIENVSFGSGGALLQKLTRDLLNCSFKCSYVVTNGLGVNVFKDPVADPNKRSKKGRLSLHRTPAGNFVTLEEGKGDLEEYGHDLLHTVFKNGKVTKSYSFDEVRKNAQLNIEQDVAPH
With B1 the number of meshes was “not significantly different”.
